Measurements from the supplement of paper PMC7877785.
± gives the uncertainty stated by the source.

Assay: self-splicing fitness, log relative to wild type (ln ratio); higher = more splicing; Tetrahymena group I intron in knt gene, E. coli kanamycin selection, DiMSum; sequences stand for … in CUCUCU…GGAGGGAAAAGUUAUCAGGCAUGCACCUGGUAGCUAGUCUUUAAACCAAUAGAUUGCAUCGGUUUAAAAGGCAAGACCGUCAAAUUGCGGGAAAGGGGUCAACAGCCGUUCAGUACCAAGUCUCAGGGGAAACUUUGAGAUGGCCUUGCAAAGGGUAUGGUAAUAAGCUGACGGACAUGGUCCUAACCACGCAGCCAAGUCCUAAGUCAACAGAUCUUCUGUUGAUAUGGAUGCAGUUCACAGACUAAAUGUCGGUCGGGGAAGAUGUAUUCUUCUCAUAAGAUAUAGUCGGACCUCUCCUUAAUGGGAGCUAGCGGAUGAAGUGAUGCAACACUGGAGCCGCUGGGAACUAAUUUGUAUGCGAAAGUAUAUUGAUUAGUUUUGGAGUACUCGUGGUCG
Outline: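 Pooled colonies went to amplicon sequencing on an Illumina HiSeq 2500 after six replicate transformations. The plates were LB agar with 100 μg/mL carbenicillin, 50 μM IPTG and 0.2% rhamnose, with or without 25 μg/mL kanamycin, incubated overnight at 37°C or 30°C. The E. coli BL21(DE3) library had all eight P1ex-region intron nucleotides randomised, the intron placed in the knt kanamycin-resistance gene on pET-22b(+). DiMSum fitness is the error-weighted combination of replicate fold changes, kanamycin against none, normalised to wild type.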

Sequence	self-splicing fitness (ln) (30 °C)	self-splicing fitness (ln) (37 °C)
UCACAGCAAUAUUACGCAUU	-2.93 ± 0.22	–
UCACAGCAAUAUUACGCCAC	–	-3.66 ± 0.3
UCACAGCAAUAUUACGCCCC	-0.433 ± 0.3	-1.51 ± 0.41
UCACAGCAAUAUUACGCGGA	-1.81 ± 0.18	-2.12 ± 0.27
UCACAGCAAUAUUACGCGUC	-3.18 ± 0.31	-1.55 ± 0.16
UCACAGCAAUAUUACGCUAA	-2.39 ± 0.12	-2.27 ± 0.18
UCACAGCAAUAUUACGCUCU	-2.38 ± 0.16	-3.34 ± 0.47
UCACAGCAAUAUUACGCUUG	-2.14 ± 0.12	0.263 ± 0.1
UCACAGCAAUAUUACGGAAA	-3.16 ± 0.24	-1.85 ± 0.18
UCACAGCAAUAUUACGGCAC	-2.93 ± 0.27	-2.49 ± 0.31
UCACAGCAAUAUUACGGUUA	-0.541 ± 0.072	0.291 ± 0.08
UCACAGCAAUAUUACGUAAU	-3.25 ± 0.21	-2.54 ± 0.29
UCACAGCAAUAUUACGUAUA	-2.64 ± 0.12	-1.37 ± 0.1
UCACAGCAAUAUUACGUAUC	-4.32 ± 0.46	-2.75 ± 0.19
UCACAGCAAUAUUACGUCUA	-1.25 ± 0.077	-0.331 ± 0.075
UCAGAGCAAUAUUACGAAGU	-3.13 ± 0.33	–
UCAGAGCAAUAUUACGACAU	-4.002 ± 0.035	-2.6 ± 0.045
UCAGAGCAAUAUUACGACUG	-1.67 ± 0.19	-0.645 ± 0.2
UCAGAGCAAUAUUACGAUGU	-1.87 ± 0.077	-1.41 ± 0.093
UCAGAGCAAUAUUACGCAAA	-1.85 ± 0.23	-2.03 ± 0.46
UCAGAGCAAUAUUACGCAAU	-2.77 ± 0.24	-3.06 ± 0.35
UCAGAGCAAUAUUACGCUGC	–	-0.708 ± 0.32
UCAGAGCAAUAUUACGGAAC	-2.43 ± 0.2	-2.49 ± 0.26
UCAGAGCAAUAUUACGGCGC	-1.6 ± 0.2	-2.6 ± 0.45
UCAGAGCAAUAUUACGGCGU	-3.42 ± 0.22	-2.05 ± 0.18

Sequence	self-splicing fitness (ln) (30 °C)	self-splicing fitness (ln) (37 °C)
UCAGAGCAAUAUUACGUCAA	-3.81 ± 0.4	-2.13 ± 0.23
UCAGAGCAAUAUUACGUCAC	-2.51 ± 0.18	–
UCAGAGCAAUAUUACGUCGA	-1.11 ± 0.072	-0.44 ± 0.11
UCAGAGCAAUAUUACGUCUU	-3.53 ± 0.32	-2.53 ± 0.36
UCAGAGCAAUAUUACGUUAU	-2.84 ± 0.19	-3.42 ± 0.4
UCAGAGCAAUAUUACGUUUC	-3.15 ± 0.23	-3.04 ± 0.38
UCAUAGCAAUAUUACGAACG	-0.967 ± 0.085	-0.602 ± 0.12
UCAUAGCAAUAUUACGACCA	-0.368 ± 0.34	-0.568 ± 0.31
UCAUAGCAAUAUUACGAGAG	-2.96 ± 0.24	-2.44 ± 0.22
UCAUAGCAAUAUUACGCAAC	-3.77 ± 0.39	-1.48 ± 0.32
UCAUAGCAAUAUUACGCAGC	-3.15 ± 0.35	-1.03 ± 0.23
UCAUAGCAAUAUUACGCGAA	-2.95 ± 0.23	-1.51 ± 0.15
UCAUAGCAAUAUUACGCGCA	0.0597 ± 0.12	0.225 ± 0.12
UCAUAGCAAUAUUACGCGGU	-3.43 ± 0.25	-2.2 ± 0.25
UCAUAGCAAUAUUACGCUAG	-3.15 ± 0.22	-1.34 ± 0.2
UCAUAGCAAUAUUACGCUCG	-0.651 ± 0.15	-0.277 ± 0.17
UCAUAGCAAUAUUACGCUGG	-3.05 ± 0.19	-2.3 ± 0.16
UCAUAGCAAUAUUACGGAGA	-1.95 ± 0.17	-0.994 ± 0.13
UCAUAGCAAUAUUACGGCCC	–	-1.11 ± 0.43
UCAUAGCAAUAUUACGGCUA	-2.69 ± 0.27	-2.37 ± 0.39
UCAUAGCAAUAUUACGGGCU	–	-2.19 ± 0.32
UCAUAGCAAUAUUACGGUGU	-3.51 ± 0.21	-1.27 ± 0.13
UCAUAGCAAUAUUACGUAAC	-3.57 ± 0.37	-1.6 ± 0.31
UCAUAGCAAUAUUACGUACG	-1.57 ± 0.12	-0.499 ± 0.13
UCAUAGCAAUAUUACGUCUG	-1.16 ± 0.081	-0.895 ± 0.1
